Assay results: patent publication US20180362652A1 (Biogen, published 2018)
“And” between values parts separate entries of the source, which are not always exact repeats. Identical values can stand only once.

Experiments:
[1] = molecular target: T1, human BDCA2 (full-length, cell surface) (human, UniProt Q8WTT0 1-213); experiment: FACS
T1 construct: also called huBDCA2; surface human BDCA2
T1 sequence: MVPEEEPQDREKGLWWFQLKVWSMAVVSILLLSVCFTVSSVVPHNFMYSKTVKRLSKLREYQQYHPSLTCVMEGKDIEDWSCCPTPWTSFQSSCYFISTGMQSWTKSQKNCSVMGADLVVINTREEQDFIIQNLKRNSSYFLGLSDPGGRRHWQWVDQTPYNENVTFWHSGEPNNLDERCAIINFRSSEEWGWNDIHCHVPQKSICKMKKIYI

[2] = molecular target: T2, cynomolgus monkey BDCA2 (full-length, cell surface, E73 SNP form) (cynomolgus monkey, UniProt Q8WTT0 1-213 (human entry)); experiment: FACS
T2 construct: also called cyno BDCA2; surface cynomolgus monkey BDCA2
T2 chain: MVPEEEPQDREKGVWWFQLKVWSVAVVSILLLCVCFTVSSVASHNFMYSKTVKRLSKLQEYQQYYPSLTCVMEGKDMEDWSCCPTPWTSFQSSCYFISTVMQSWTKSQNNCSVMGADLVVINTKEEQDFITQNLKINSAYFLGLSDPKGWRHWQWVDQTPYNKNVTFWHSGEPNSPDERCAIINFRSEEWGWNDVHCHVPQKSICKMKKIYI

[3] = molecular target: T1, human BDCA2 (full-length, cell surface); experiment: cell-based or functional assay
[4] = molecular target: T2, cynomolgus monkey BDCA2 (full-length, …); experiment: cell-based or functional assay
[5] = molecular target: T1, human BDCA2 (full-length, cell surface); experiment: flow cytometry, whole blood, Alexa647-labeled BIIB059 on pDCs
Experimental: Cynomolgus monkey (Toxikon, Inc, Bedford, Mass.) or human peripheral blood (Biogen Idec) were collected in sodium heparin collection tubes and maintained at room temperature. A FACS staining antibody cocktail for identifying pDCs was added to each whole blood aliquot, incorporating CD20, CD14, CD123 and HLA-DR antibodies. […] Blood was incubated on ice, protected from light, for 30 min. […] After a 10-15 min. incubation at room temperature, samples were centrifuged at 1400 rpm for 5 min. The supernatant was decanted, leaving only a pellet of white blood cells (WBC). Each WBC pellet was washed with 5 mL of FACS buffer (1% BSA+0.002% NaAzide+1 mM CaCl₂+1 mM MgCl₂ in PBS), and centrifuged at 1400 rpm for 5 min. The supernatant was decanted, and each WBC pellet was resuspended in 200 μL of FACS buffer and transferred to a 96-well round bottom plate (Fisher Scientific). The plate was centrifuged at 1400 rpm for 5 min. The supernatant was dumped out of the plate, and each WBC pellet was washed with 200 μL of FACS buffer. The plate was centrifuged at 1400 rpm for 5 min, and the supernatant dumped out of the plate. Following washing (as above), WBCs were resuspended in 200 μL of 1% paraformaldehyde (PFA) in PBS, and fixed at 4° C. overnight, protected from light. […] Each WBC pellet was resuspended in 250 μL of FACS buffer and fluorescence intensity measured on a LSRII 4-color FACS machine. […]

[6] = molecular target: T3, rat Clec4b2 (full-length, cell surface) (rat); experiment: dilution titration direct FACS on transiently transfected 293E cells
T3 construct: 293E cells co-transfected with rat FcεRIγ; Genbank NM_001005896; also called surface rat Clec4b2; closest rat homolog of human BDCA2
T3 chain: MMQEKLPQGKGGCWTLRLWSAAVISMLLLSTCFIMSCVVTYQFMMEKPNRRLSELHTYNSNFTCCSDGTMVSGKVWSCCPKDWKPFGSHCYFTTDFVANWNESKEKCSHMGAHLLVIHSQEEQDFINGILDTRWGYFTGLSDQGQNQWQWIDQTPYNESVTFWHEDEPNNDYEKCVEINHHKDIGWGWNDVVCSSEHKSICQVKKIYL

[7] = molecular target: T2, cynomolgus monkey BDCA2 (full-length, …); experiment: flow cytometry, whole blood pDCs of cynomolgus monkey donor 1, anti-human IgG PE secondary
Experimental: (§1) The MFI of PE was calculated in FlowJo software, and the percent of maximal binding, using the 40 μg/mL point as 100%, was computed. Each line represents one individual cynomolgus monkey, for a total of twelve cynomolgus monkeys, and graphed using GraphPad Prism software (four-parameter nonlinear regression curve fit of log-transformed data). Staining was repeated once a week for three weeks total.
(§2) The maximal values were taken from the values at the plateau in each assay (FIGS. 24 and 25).
(§3) MFI of PE was calculated with FlowJo software, and EC50 curves were generated in GraphPad Prism software.

[8] = molecular target: T2, cynomolgus monkey BDCA2 (full-length, …); experiment: flow cytometry, whole blood pDCs of cynomolgus monkey donor 8, anti-human IgG PE secondary
Experimental: as §1, §2, §3

[9] = molecular target: T2, cynomolgus monkey BDCA2 (full-length, …); experiment: flow cytometry, whole blood pDCs of cynomolgus monkey donor 9, anti-human IgG PE secondary
Experimental: as §1, §2, §3

- EC50 [1]: 7 nM
- EC50 [2]: 7 nM
- EC50 of BIIB059-mediated BDCA2 internalization (whole blood, 10 donors) [3]: 0.02 µg/mL
- IC50 for inhibition of TLR9-induced IFNα production by PBMC [3]: 0.001 µg/mL
- IC50 for inhibition of TLR9-induced IFNα production by PBMC from healthy donors [3]: 0.04 µg/mL
- IC50 for inhibition of immune complex-induced IFNα by pDCs [3]: 0.04 µg/mL
- IC50 of BIIB059 mediated inhibition of TLR9 induced IFNα (whole blood, 10 donors) [3]: 0.07 µg/mL
- EC50 of BDCA2 internalization on pDCs (cynomolgus monkey 3, IV 10 mg/kg) [4]: 0.15 µg/mL
- EC50 of BDCA2 internalization on pDCs (cynomolgus monkey 4, SC 0.2 mg/kg) [4]: 0.088 µg/mL
- EC50 of BDCA2 internalization on pDCs (cynomolgus monkey 5, IV 1 mg/kg) [4]: 0.087 µg/mL
- EC50 of BDCA2 internalization on pDCs (cynomolgus monkey 6, IV 1 mg/kg) [4]: 0.025 µg/mL
- EC50 of BDCA2 internalization on pDCs (cynomolgus monkey 6, SC 0.2 mg/kg) [4]: 0.046 µg/mL
- EC50 of BDCA2 internalization on pDCs (cynomolgus monkey 7, IV 1 mg/kg) [4]: 0.09 µg/mL
- EC50 of BDCA2 internalization on pDCs (cynomolgus monkey 8, IV 10 mg/kg) [4]: 0.37 µg/mL
- EC50 of BDCA2 internalization on pDCs (cynomolgus monkey 10, IV 10 mg/kg) [4]: 0.126 µg/mL
- EC50 of BDCA2 internalization on pDCs (cynomolgus monkey 12, SC 0.2 mg/kg) [4]: 0.121 µg/mL
- EC50 of BDCA2 internalization on pDCs (mean of the cynomolgus monkeys) [4]: 0.123 µg/mL
- binding result [6]: no binding
- EC50 [7]: 0.81 µg/mL
- EC50 [8]: 1.2 µg/mL
- EC50 [9]: 1.4 µg/mL
B1: BIIB059 (antibody, human IgG1, kappa)
heavy: not shown
light: DIQLTQSPSSLSASVGDRVTITCKASQSVDYDGDSYMNWYQQKPGKAPKLLIYAASTLESGVPSRFSGSGSGTDFTLTISSLQPEDFATYYCQQANEDPRTFGQGTKVEIKRTVAAPSVFIFPPSDEQLKSGTASVVCLLNNFYPREAKVQWKVDNALQSGNSQESVTEQDSKDSTYSLSSTLTLSKADYEKHKVYACEVTHQGLSSPVTKSFNRGEC
notes: Humanized IgG1 kappa, mature chains; in some assays labelled with Alexa647; also called hu24F4 H4/L1 C95A; H4-L1-C95A (YL751/YL746)
- EC50 [5]: 1 µg/mL to 2 µg/mL (2×) and 7 nM to 13 nM
